Experimental data: US20180355046A1 (Boehringer Ingelheim, published 2018)

Molecular target: human TrkB receptor on cells (human, UniProt Q16620 32-822)
Experiment: cell-based or functional assay

Sequence of human TrkB receptor on cells (Q16620 32-822): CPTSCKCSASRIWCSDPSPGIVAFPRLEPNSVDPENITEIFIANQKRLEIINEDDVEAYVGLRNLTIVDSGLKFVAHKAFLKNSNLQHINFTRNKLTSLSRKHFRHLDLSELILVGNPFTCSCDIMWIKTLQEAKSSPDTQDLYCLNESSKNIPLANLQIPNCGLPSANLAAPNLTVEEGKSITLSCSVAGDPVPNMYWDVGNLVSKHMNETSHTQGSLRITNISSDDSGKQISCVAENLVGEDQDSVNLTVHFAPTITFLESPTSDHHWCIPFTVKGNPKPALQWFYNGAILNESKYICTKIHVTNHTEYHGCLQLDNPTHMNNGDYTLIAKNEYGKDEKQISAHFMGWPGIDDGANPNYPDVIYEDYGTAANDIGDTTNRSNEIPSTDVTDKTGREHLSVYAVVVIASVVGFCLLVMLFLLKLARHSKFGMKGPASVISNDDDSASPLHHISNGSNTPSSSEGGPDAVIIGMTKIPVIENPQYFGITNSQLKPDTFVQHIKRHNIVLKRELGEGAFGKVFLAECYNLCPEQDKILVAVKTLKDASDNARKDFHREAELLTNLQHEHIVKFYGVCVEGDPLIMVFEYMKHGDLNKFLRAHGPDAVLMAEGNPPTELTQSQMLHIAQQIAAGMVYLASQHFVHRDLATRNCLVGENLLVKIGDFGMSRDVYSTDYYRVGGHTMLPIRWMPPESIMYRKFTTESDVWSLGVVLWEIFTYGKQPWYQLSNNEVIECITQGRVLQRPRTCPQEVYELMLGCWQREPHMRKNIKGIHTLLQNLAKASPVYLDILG

B1: brain-derived neurotrophic factor (BDNF) (ligand, UniProt P23560 129-247, looked up)
chain: HSDPARRGELSVCDSISEWVTAADKKTAVDMSGGTVTVLEKVPVSKGQLKQYFYETKCNPMGYTKEGCRGIDKRHWNSQCRTTQSYVRALTMDSKKRIGWRFIRIDTSCVCTLTIKRGR
- AKT 1/2/3-P (T308), differentiated SH-SY5Y cells, EC50: 0.255 nM
- TrkB-P (TrkB phosphorylation, AlphaLISA, differentiated SH-SY5Y cells), EC50: 0.43 nM
